Data as given in article PMC4240654, “A Single Chain Variant of Factor VIII Fc Fusion Protein Retains Normal In Vivo Efficacy but Exhibits Altered In Vitro Activity” (PLoS ONE, 2014).

Key:
[1] = molecular target: T1, human plasma-derived von Willebrand factor (VWF) (human, UniProt P04275 764-2813); experiment: SPR; Biacore T100, 25°C; human plasma-derived VWF immobilised on flow cells, FVIII variants infused to normalized capture levels, then human α-thrombin at different concentrations applied and rates of release determined; conditions: both partners purified
T1 construct: von Willebrand factor, human, derived from plasma; Plasma VWF is a multimer; also called human VWF; source: human plasma-derived

[2] = molecular target: T1, human plasma-derived von Willebrand …; experiment: SPR; Biacore T100, 37°C; human plasma-derived VWF immobilised on flow cells, FVIII variants infused to normalized capture levels, then human α-thrombin at different concentrations applied and rates of release determined; conditions: both partners purified

B1: BDD rFVIII (recombinant B-domain-deleted factor VIII, ReFacto / Xyntha) (natural protein)
chain 1: ATRRYYLGAVELSWDYMQSDLGELPVDARFPPRVPKSFPFNTSVVYKKTLFVEFTDHLFNIAKPRPPWMGLLGPTIQAEVYDTVVITLKNMASHPVSLHAVGVSYWKASEGAEYDDQTSQREKEDDKVFPGGSHTYVWQVLKENGPMASDPLCLTYSYLSHVDLVKDLNSGLIGALLVCREGSLAKEKTQTLHKFILLFAVFDEGKSWHSETKNSLMQDRDAASARAWPKMHTVNGYVNRSLPGLIGCHRKSVYWHVIGMGTTPEVHSIFLEGHTFLVRNHRQASLEISPITFLTAQTLLMDLGQFLLFCHISSHQHDGMEAYVKVDSCPEEPQLRMKNNEEAEDYDDDLTDSEMDVVRFDDDNSPSFIQIRSVAKKHPKTWVHYIAAEEEDWDYAPLVLAPDDRSYKSQYLNNGPQRIGRKYKKVRFMAYTDETFKTREAIQHESGILGPLLYGEVGDTLLIIFKNQASRPYNIYPHGITDVRPLYSRRLPKGVKHLKDFPILPGEIFKYKWTVTVEDGPTKSDPRCLTRYYSSFVNMERDLASGLIGPLLICYKESVDQRGNQIMSDKRNVILFSVFDENRSWYLTENIQRFLPNPAGVQLEDPEFQASNIMHSINGYVFDSLQLSVCLHEVAYWYILSIGAQTDFLSVFFSGYTFKHKMVYEDTLTLFPFSGETVFMSMENPGLWILGCHNSDFRNRGMTALLKVSSCDKNTGDYYEDSYEDISAYLLSKNNAIEPRSFSQNPPVLKRHQR
chain 2: EITRTTLQSDQEEIDYDDTISVEMKKEDFDIYDEDENQSPRSFQKKTRHYFIAAVERLWDYGMSSSPHVLRNRAQSGSVPQFKKVVFQEFTDGSFTQPLYRGELNEHLGLLGPYIRAEVEDNIMVTFRNQASRPYSFYSSLISYEEDQRQGAEPRKNFVKPNETKTYFWKVQHHMAPTKDEFDCKAWAYFSDVDLEKDVHSGLIGPLLVCHTNTLNPAHGRQVTVQEFALFFTIFDETKSWYFTENMERNCRAPCNIQMEDPTFKENYRFHAINGYIMDTLPGLVMAQDQRIRWYLLSMGSNENIHSIHFSGHVFTVRKKEEYKMALYNLYPGVFETVEMLPSKAGIWRVECLIGEHLHAGMSTLFLVYSNKCQTPLGMASGHIRDFQITASGQYGQWAPKLARLHYSGSINAWSTKEPFSWIKVDLLAPMIIHGIKTQGARQKFSSLYISQFIIMYSLDGKKWQTYRGNSTGTLMVFFGNVDSSGIKHNIFNPPIIARYIRLHPTHYSIRSTLRMELMGCDLNSCSMPLGMESKAISDAQITASSYFTNMFATWSPSKARLHLQGRSNAWRPQVNNPKEWLQVDFQKTMKVTGVTTQGVKSLLTSMYVKEFLISSSQDGHQWTLFFQNGKVKVFQGNQDSFTPVVNSLDPPLLTRYLRIHPQSWVHQIALRMEVLGCEAQDLY
modifications: ReFacto/Xyntha (moroctocog alfa): S743-Q1638 fusion by convention, the same junction as printed for rFVIIIFc; mainly two-chain after cleavage at R1648, with a minor single-chain fraction …
thrombin EC50 for release from VWF [1]: 3.3 ± 0.3 U/mL
thrombin EC50 for release from VWF [2]: 4 ± 0.2 U/mL
